Data set [1] deals with S. bicolor HPPD. As to the kind of experiment: HPPD activity, coupled assay with HGD; substrate saturation kinetics. The class given is biochemical, Sorghum bicolor. To be noted: sorghum HPPD, wt and improved. The protocol:
(§1) HPPD activity was measured by placing an aliquot (e.g., 6 ul) of the substrate HPP at 50-fold the desired final concentration into the wells of a low UV-absorbing assay plate. Reactions were started by adding a mixture (e.g., 294 ul) containing 25 mM Hepes, pH 7, 2 mM ascorbate, 10 uM FeSO4, 1 to 100 uM HPP, 50 nM HGD and 5 to 240 nM HPPD. Absorbance at 320 nm was monitored continuously in a plate-reading spectrophotometer (Spectramax, Molecular Devices).
(§2) The catalytic performance of wild-type HPPD and variants generated by shuffling was assessed by determining the substrate saturation parameters. The Michaelis-Menten kinetics protocol of the Spectramax software was customized for HPP concentrations ranging from 3.33 uM to 100 uM, or up to 1 mM if required. Reaction rates were measured as described above for each concentration of HPP. The software returns values of KM and Vmax using the Lineweaver-Burke transformation of the Michaelis-Menten equation.
(§3) The amino acid substitutions identified during the shuffling and mutagenesis of the maize HPPD gene can be made at analogous positions in other HPPD proteins to improve their insensitivity toward HPPD-inhibiting herbicides. The sequences of native and improved maize HPPD were aligned with those of sorghum (Genbank accession number XP002453359) and soybean (Genbank accession number ABQ96868), and the motif substitutions were designed accordingly, as shown in FIG. 14. The genes designed for improvement were synthesized commercially, inserted into vector pVER7062 and expressed, purified and evaluated as in Example 1.

For data set [2], the system named is S. bicolor HPPD. As to the kind of experiment: ON/OFF rate ratio insensitivity parameters of HPPD with maize motif substitutions. To be noted: sorghum HPPD. It is filed as biochemical, Sorghum bicolor. As for the experimental part: (§4) [formula] Higher KD (reduced affinity or increased insensitivity) can be attained with a numerically smaller ON rate, a larger OFF rate or both. […] The ratio of the reaction rate with inhibitor to that without inhibitor during the 70 to 90 second interval of the reaction was termed the “ON rate ratio”. […] Incubations with the same concentrations of enzyme but no mesotrione were done in parallel. After 1 hr at room temperature, 5 to 10 ul of the enzyme-inhibitor complex was dispensed into the wells of the assay plate. Reactions were started with the addition of 290 to 295 ul of 25 mM Hepes, pH 7, 2 mM ascorbate, 10 uM FeSO4, 100 uM HPP and 50 nM HGD. The reactions were monitored at 320 nm for 12 min. Reaction velocity accelerates as inhibitor is released from the enzyme until a steady state is reached, during which the reaction velocity is constant. The ratio of the steady state rate in mixtures containing mesotrione (or other herbicidal inhibitor) to the initial velocity of mixtures lacking inhibitor is termed the “OFF rate ratio”. Another parameter to record is the time span required for the reactions with inhibitor to reach the steady state. […] It is not certain that the steady state attained in the OFF rate reactions actually represents an equilibrium where OFF rates are now equal to ON rates. Because substrate and inhibitors bind in the same site, the high concentration of substrate present may competitively trap the inhibitor and prevent it from binding again. To be sure that improvement in ON rates is being taken into account, the ON and OFF rate ratios were multiplied together and the product is termed the “insensitivity parameter”.

A further data set has as its system G. max HPPD. The data set is described as above. To be noted: for OFF ratio / ON ratio / ON × OFF Fold vs wt / ON × OFF Value: soy HPPD. It is filed as biochemical, Glycine max. As for the experimental part: as §4
The test system of the next data set is soybean HPPD. As to the kind of experiment: HPPD activity, coupled assay with HGD; substrate saturation kinetics (KM, kcat). It is filed as biochemical. To be noted: soy HPPD, wt and improved.
Source text: HPPD catalyzes the conversion of 4-hydroxyphenylpyruvate (HPP) to homogentisate. See, FIG. 1. […] However, the product of the ensuing reaction in tyrosine metabolism, maleylacetoacetate, absorbs strongly at 320 nm. Furthermore, the enzyme catalyzing that reaction is also a dioxygenase having similar mechanism and buffer requirements as HPPD, making homogentisate dioxygenase (HGD) an ideal partner in a coupled assay, as shown.
The HDG gene from Pseudomonas aeruginosa (Amaya (2004) Arch Biochem Biophys 421, 135-142) was cloned into pVER7062 and electroporated into E. coli strain BL21(DE3). The enzyme was produced by methods similar to those described for HPPD. The purified enzyme has a KM for homogentisate of 23 uM and a kcat of 100/sec, properties highly suited for instantly converting the homogentisate produced by HPPD to maleylacetoacetate.
as §1, §2, §3

By Km is commonly meant the substrate concentration at which the rate is half of its maximum.

Numbering of substitutions follows the chain as printed.

B1: SEQ ID NO: 394 (protein)
chain: MPPTPTTAAATGAAVAAASAEQAAFRLVGHRNFVRVNPRSDRFHTLAFHHVELWCADAASAAGRFSFGLGAPLAARSDLSTGNTAHASLLLRSGALAFLFTAPYAHGADAATASLPSFSAAEARRFAADHGLAVRAVALRVADAEDAFRASVAAGARPAFEPVELGLGFRLAEVELYGDVVLRYVSYPDDADASFLPGFVGVTSPGAADYGLRRFDHIVGNVPELAPAAAYFAGFTGFHEFAEFTAEDVGTTESGLNSMVLANNAENVLLPLNEPVHGTKRRSQIQTYLDHHGGPGVQHMALASDDVLRTLREMQARSAMGGFEFMAPPAPEYYDGVRRRAGDVLTEAQIKECQELGVLVDRDDQGVLLQIFTKPVGDRPTLFLEIIQRIGCMEKDEKGQEYQKGGCGGFGKGNFSQLFKSIEDYEKSLEAKQAAAAQGS
modifications: Sorghum bicolor
In the case of B1, in the data set with S. bicolor HPPD [1], the Km worked out at 4.9 µM and the kcat is listed as 246. In the data set with S. bicolor HPPD [2] (Mesotrione), the OFF ratio worked out at 0.199, the ON ratio is on record as 0.227 and the “ON × OFF Value” came out at 0.045. In addition, in the data set with S. bicolor HPPD [2] (Tembotrione), the OFF ratio is listed as 0.032, the ON ratio was determined as 0.210 and the “ON × OFF Value” came to 0.0067.

B2: GE010083 (protein)
chain: B1 chain with F232M, V260A, M300I, M326L, A327P, A330L, P331S, R340C, L359M, S416G
modifications: HPPD variant
As to B2, in the data set with S. bicolor HPPD [1], the Km was found to be 5.35 µM and the kcat stood at 87. In addition, in the data set on S. bicolor HPPD [2] (Mesotrione), the OFF ratio turned out to be 0.436, the ON ratio was determined as 0.634, the “ON × OFF Fold vs wt” value was 6.13 and the “ON × OFF Value” was 0.277. Moreover, in the data set with S. bicolor HPPD [2] (Tembotrione), the OFF ratio was found to be 0.071, the ON ratio came out at 0.730, the “ON × OFF Fold vs wt” value is 7.71 and the “ON × OFF Value” amounted to 0.0517.

B3: GE010082: Glycine max variant HPPD with maize motif substitutions, SEQ ID NO: 458 (protein)
chain: MPIPMCNEIQAQAQAQAQAQPGFKLVGFKNFVRTNPKSDRFQVNRFHHIEFWCTDATNASRRFSWGLGMPIVAKSDLSTGNQIHASYLLRSGDLSFLFSAPYSPSLSAGSSAASSASIPSFDAATCLAFAAKHGFGVRAIALEVADAEAAFSASVAKGAEPASPPVLVDDRTGFAEVRLYGDVVLRYVSYKDAAPQAPHADPSRWFLPGFEAAASSSSFPELDYGIRRLDHAVGNVPELAPAVAYMAGFSGFHEFAEFTAEDVGTSESGLNSMALANNSETVLLPLNEPVYGTKRKSQIETYLEHNEGAGVQHLALVTHDIFTTLREMRKRSFLGGFEFMPSPPPTYYANLHNCAADVLTVDQIKQCEELGIMVDRDDQGTLLQIFTKPVGDRPTIFIEIIQRIGCMVEDEEGKVYQKGACGGFGKGNFGELFKSIEEYEKTLEAKRTAGLTVNS
modifications: HPPD variant
As to B3, in the data set on G. max HPPD (Mesotrione), the OFF ratio amounted to 0.219, the ON ratio is reported as 0.444, the “ON × OFF Fold vs wt” value turned out to be 2.41 and the “ON × OFF Value” is reported as 0.097. In addition, in the data set on G. max HPPD (Tembotrione), the OFF ratio was found to be 0.070, the ON ratio is 0.321, the “ON × OFF Fold vs wt” value amounted to 5.10 and the “ON × OFF Value” is 0.0224. Further, in the data set with G. max HPPD (mesotrione), the “improvement of insensitivity vs native protein” value is 2.41 fold. Further, the “improvement of insensitivity vs native protein” value in the data set on G. max HPPD (tembotrione) came out at 5.10 fold. For the same molecule, in the data set with soybean HPPD, the Km is 14 µM and the kcat is listed as 13.

B4: SEQ ID NO: 2 (protein)
chain: MAIPMCNEIQAQAQAQAQAQPGFKLVGFKNFVRTNPKSDRFQVNRFHHIEFWCTDATNASRRFSWGLGMPIVAKSDLSTGNQIHASYLLRSGDLSFLFSAPYSPSLSAGSSAASSASIPSFDAATCLAFAAKHGFGVRAIALEVADAEAAFSASVAKGAEPASPPVLVDDRTGFAEVRLYGDVVLRYVSYKDAAPQAPHADPSRWFLPGFEAAASSSSFPELDYGIRRLDHAVGNVPELAPAVRYLKGFSGFHEFAEFTAEDVGTSESGLNSVVLANNSETVLLPLNEPVYGTKRKSQIETYLEHNEGAGVQHLALVTHDIFTTLREMRKRSFLGGFEFMPSPPPTYYANLHNRAADVLTVDQIKQCEELGILVDRDDQGTLLQIFTKPVGDRPTIFIEIIQRIGCMVEDEEGKVYQKGACGGFGKGNFSELFKSIEEYEKTLEAKRTA
modifications: Glycine max
As to B4, in the data set with G. max HPPD (Mesotrione), the OFF ratio is on record as 0.135, the ON ratio is recorded as 0.299 and the “ON × OFF Value” was found to be 0.040. Also, in the data set with G. max HPPD (Tembotrione), the OFF ratio amounted to 0.044, the ON ratio turned out to be 0.102 and the “ON × OFF Value” was 0.0044. Besides, in the data set on soybean HPPD, the Michaelis-Menten constant (Km) was determined as 2 µM and the kcat is reported as 83.

The values above are taken from US9187762B2, “Compositions and methods comprising sequences having hydroxyphenylpyruvate dioxygenase (HPPD) activity” (PIONEER HI-BRED INTERNATIONAL, INC., priority 2010, dated 2015).
